Measured values from the supplement of paper PMC9112550, “Optimization of the antimicrobial peptide Bac7 by deep mutational scanning” (BMC Biology, 2022).

System: Escherichia coli TOP10
Assay: shrunken log2 fold change of peptide-encoding DNA abundance (4.5 h post-induction vs induction); higher = less antimicrobial activity (less host growth inhibition)
Conditions: time post-induction: 4.5 h; library: site-saturation at positions 5, 18, 19, 20
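Note: peptides expressed intracellularly from a pBAD plasmid library in pooled LB shake-flask culture, induced with 0.3% L-arabinose, DNA abundance read by NGS, three biological replicates, DESeq2 with apeglm shrinkage.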

Q: With RRIRTRPPRLPRPRPRPGLSPRP as the sequence, how does the “shrunken log2 fold change” value read?
A: Its value is 0.0345.

Q: RRIRPRPPRLPRPRPRPITHPRP was tested. Which “shrunken log2 fold change” value did it give?
A: The value was -0.117.

Q: How did the “shrunken log2 fold change” value turn out when RRIRPRPPRLPRPRPRPTAEPRP was run?
A: Its value is 0.595.

Q: How did the “shrunken log2 fold change” value turn out when RRIRHRPPRLPRPRPRPSLPPRP was run?
A: The value was -0.328.

Q: How did the “shrunken log2 fold change” value turn out when RRIRGRPPRLPRPRPRPYVQPRP was run?
A: The value was -0.122.

Q: With RRIRLRPPRLPRPRPRPGYKPRP as the sequence, how does the “shrunken log2 fold change” value read?
A: Its value is -0.514.

Q: With RRIRWRPPRLPRPRPRPEIFPRP as the sequence, how does the “shrunken log2 fold change” value read?
A: Its value is 0.0932.

Q: RRIRHRPPRLPRPRPRPWRFPRP was tested. Which “shrunken log2 fold change” value did it give?
A: The value was 0.0342.

Q: Which “shrunken log2 fold change” value does the source give for RRIRKRPPRLPRPRPRPWFVPRP here?
A: Its value is -0.036.

Q: For RRIRYRPPRLPRPRPRPVLFPRP, which “shrunken log2 fold change” value is on record?
A: Its value is -0.598.

Q: How did the “shrunken log2 fold change” value turn out when RRIRGRPPRLPRPRPRPQYDPRP was run?
A: The value was 0.101.

Q: RRIRQRPPRLPRPRPRPSIFPRP was tested. Which “shrunken log2 fold change” value did it give?
A: The value was -0.635.

Q: RRIRCRPPRLPRPRPRPGNSPRP was tested. Which “shrunken log2 fold change” value did it give?
A: Its value is -0.429.

Q: RRIRHRPPRLPRPRPRPDIKPRP was tested. Which “shrunken log2 fold change” value did it give?
A: Its value is -0.559.

Q: For RRIRKRPPRLPRPRPRPHAIPRP, which “shrunken log2 fold change” value is on record?
A: Its value is -0.142.

Q: With RRIRDRPPRLPRPRPRPNRVPRP as the sequence, how does the “shrunken log2 fold change” value read?
A: The value was -0.023.

Q: How did the “shrunken log2 fold change” value turn out when RRIRGRPPRLPRPRPRPEETPRP was run?
A: Its value is 1.51.

Q: With RRIRMRPPRLPRPRPRPPVPPRP as the sequence, how does the “shrunken log2 fold change” value read?
A: Its value is 1.01.

Q: With RRIRGRPPRLPRPRPRPGQLPRP as the sequence, how does the “shrunken log2 fold change” value read?
A: The value was 0.178.

Q: Which “shrunken log2 fold change” value does the source give for RRIRTRPPRLPRPRPRPRVNPRP here?
A: Its value is 0.0441.

Q: RRIRNRPPRLPRPRPRPTHSPRP was tested. Which “shrunken log2 fold change” value did it give?
A: Its value is -0.232.

Q: RRIRYRPPRLPRPRPRPGQSPRP was tested. Which “shrunken log2 fold change” value did it give?
A: Its value is -0.108.

Q: RRIRQRPPRLPRPRPRPHCRPRP was tested. Which “shrunken log2 fold change” value did it give?
A: Its value is 0.0105.

Q: With RRIRHRPPRLPRPRPRPPIEPRP as the sequence, how does the “shrunken log2 fold change” value read?
A: Its value is -0.809.

Q: RRIRSRPPRLPRPRPRPGPFPRP was tested. Which “shrunken log2 fold change” value did it give?
A: The value was 0.00218.

Q: For RRIRIRPPRLPRPRPRPVYTPRP, which “shrunken log2 fold change” value is on record?
A: The value was -0.346.

Q: For RRIRCRPPRLPRPRPRPMCFPRP, which “shrunken log2 fold change” value is on record?
A: Its value is 0.00335.

Q: How did the “shrunken log2 fold change” value turn out when RRIRGRPPRLPRPRPRPNNVPRP was run?
A: Its value is -0.131.

Q: With RRIRFRPPRLPRPRPRPYTPPRP as the sequence, how does the “shrunken log2 fold change” value read?
A: Its value is -1.28.

Q: With RRIRARPPRLPRPRPRPHKQPRP as the sequence, how does the “shrunken log2 fold change” value read?
A: The value was -0.0718.

Q: Which “shrunken log2 fold change” value does the source give for RRIRNRPPRLPRPRPRPYGPPRP here?
A: Its value is -0.00663.

Q: Which “shrunken log2 fold change” value does the source give for RRIRTRPPRLPRPRPRPARTPRP here?
A: Its value is 0.381.

Q: How did the “shrunken log2 fold change” value turn out when RRIRMRPPRLPRPRPRPGARPRP was run?
A: Its value is 1.11.

Q: With RRIRMRPPRLPRPRPRPMICPRP as the sequence, how does the “shrunken log2 fold change” value read?
A: The value was -0.0412.

Q: How did the “shrunken log2 fold change” value turn out when RRIRHRPPRLPRPRPRPIKDPRP was run?
A: The value was -0.299.

Q: How did the “shrunken log2 fold change” value turn out when RRIRFRPPRLPRPRPRPDLQPRP was run?
A: Its value is -0.0778.

Q: How did the “shrunken log2 fold change” value turn out when RRIRYRPPRLPRPRPRPHPAPRP was run?
A: Its value is -0.333.

Q: RRIRFRPPRLPRPRPRPWAKPRP was tested. Which “shrunken log2 fold change” value did it give?
A: Its value is -0.0227.

Q: How did the “shrunken log2 fold change” value turn out when RRIRDRPPRLPRPRPRPDIQPRP was run?
A: The value was -0.228.

Q: With RRIRGRPPRLPRPRPRPEEPPRP as the sequence, how does the “shrunken log2 fold change” value read?
A: Its value is 0.106.

Q: For RRIRIRPPRLPRPRPRPNTQPRP, which “shrunken log2 fold change” value is on record?
A: The value was -0.295.

Q: Which “shrunken log2 fold change” value does the source give for RRIRERPPRLPRPRPRPMAVPRP here?
A: Its value is 0.19.

Q: RRIRWRPPRLPRPRPRPAVFPRP was tested. Which “shrunken log2 fold change” value did it give?
A: The value was 0.354.

Q: RRIRRRPPRLPRPRPRPYRSPRP was tested. Which “shrunken log2 fold change” value did it give?
A: Its value is -0.0969.

Q: Which “shrunken log2 fold change” value does the source give for RRIRFRPPRLPRPRPRPRTTPRP here?
A: The value was 0.299.

Q: Which “shrunken log2 fold change” value does the source give for RRIRVRPPRLPRPRPRPKTKPRP here?
A: The value was 0.0179.

Q: Which “shrunken log2 fold change” value does the source give for RRIRCRPPRLPRPRPRPFHMPRP here?
A: Its value is -0.36.

Q: With RRIRCRPPRLPRPRPRPCWTPRP as the sequence, how does the “shrunken log2 fold change” value read?
A: The value was -0.223.

Q: Which “shrunken log2 fold change” value does the source give for RRIRVRPPRLPRPRPRPCQEPRP here?
A: Its value is -0.68.

Q: For RRIRIRPPRLPRPRPRPTNMPRP, which “shrunken log2 fold change” value is on record?
A: The value was -0.427.

Q: With RRIRRRPPRLPRPRPRPNWDPRP as the sequence, how does the “shrunken log2 fold change” value read?
A: Its value is -0.0988.

Q: With RRIRVRPPRLPRPRPRPFFWPRP as the sequence, how does the “shrunken log2 fold change” value read?
A: The value was 0.395.

Q: How did the “shrunken log2 fold change” value turn out when RRIRYRPPRLPRPRPRPPQAPRP was run?
A: Its value is 0.114.

Q: Which “shrunken log2 fold change” value does the source give for RRIRFRPPRLPRPRPRPMYGPRP here?
A: Its value is -0.36.

Q: With RRIRWRPPRLPRPRPRPFPMPRP as the sequence, how does the “shrunken log2 fold change” value read?
A: The value was -0.111.

Q: RRIRCRPPRLPRPRPRPDRSPRP was tested. Which “shrunken log2 fold change” value did it give?
A: The value was 0.208.

Q: For RRIRIRPPRLPRPRPRPVYVPRP, which “shrunken log2 fold change” value is on record?
A: Its value is -1.58.

Q: With RRIRHRPPRLPRPRPRPIIEPRP as the sequence, how does the “shrunken log2 fold change” value read?
A: Its value is 0.0811.

Q: With RRIRPRPPRLPRPRPRPKGWPRP as the sequence, how does the “shrunken log2 fold change” value read?
A: The value was 1.22.

Q: RRIRNRPPRLPRPRPRPCRHPRP was tested. Which “shrunken log2 fold change” value did it give?
A: The value was -0.149.

Q: With RRIRLRPPRLPRPRPRPKCWPRP as the sequence, how does the “shrunken log2 fold change” value read?
A: Its value is 0.323.

Q: RRIRGRPPRLPRPRPRPVTQPRP was tested. Which “shrunken log2 fold change” value did it give?
A: The value was 0.445.

Q: RRIRQRPPRLPRPRPRPNVEPRP was tested. Which “shrunken log2 fold change” value did it give?
A: The value was -0.0222.

Q: For RRIRLRPPRLPRPRPRPERHPRP, which “shrunken log2 fold change” value is on record?
A: Its value is 0.27.

Q: With RRIRMRPPRLPRPRPRPLECPRP as the sequence, how does the “shrunken log2 fold change” value read?
A: Its value is -0.0215.

Q: RRIRSRPPRLPRPRPRPAARPRP was tested. Which “shrunken log2 fold change” value did it give?
A: Its value is 0.247.

Q: Which “shrunken log2 fold change” value does the source give for RRIRFRPPRLPRPRPRPMVWPRP here?
A: The value was 0.156.

Q: Which “shrunken log2 fold change” value does the source give for RRIRERPPRLPRPRPRPRMPPRP here?
A: Its value is -0.0437.

Q: With RRIRARPPRLPRPRPRPCTIPRP as the sequence, how does the “shrunken log2 fold change” value read?
A: The value was -0.000283.

Q: How did the “shrunken log2 fold change” value turn out when RRIRTRPPRLPRPRPRPMDMPRP was run?
A: The value was 0.0382.

Q: With RRIRCRPPRLPRPRPRPNDVPRP as the sequence, how does the “shrunken log2 fold change” value read?
A: The value was -0.215.

Q: How did the “shrunken log2 fold change” value turn out when RRIRIRPPRLPRPRPRPSYTPRP was run?
A: Its value is -1.06.

Q: How did the “shrunken log2 fold change” value turn out when RRIRERPPRLPRPRPRPAMIPRP was run?
A: Its value is -0.0554.

Q: RRIRERPPRLPRPRPRPPIKPRP was tested. Which “shrunken log2 fold change” value did it give?
A: The value was -0.414.

Q: With RRIRYRPPRLPRPRPRPQQFPRP as the sequence, how does the “shrunken log2 fold change” value read?
A: The value was -0.397.
